The values below come from paper PMC5291488, “3,4-Dihydroxyphenylacetate 2,3-dioxygenase from Pseudomonas aeruginosa: An Fe(II)-containing enzyme with fast turnover” (PLoS ONE, 2017).

Substrate in the data set: O=C(O)Cc1ccc(O)c(O)c1
The data set is described as follows: purified protein. The conditions noted are these: air-saturated (O2 ~260 μM), 50 mM sodium phosphate pH 7.5, 25 °C, Fe(II)/DTT-activated enzyme, stock kept with 0.5 mM ascorbic acid as preservative. The format is biochemical, Pseudomonas aeruginosa.

B1: PaDHPAO (3,4-dihydroxyphenylacetate 2,3-dioxygenase) (Pseudomonas aeruginosa PAO1) (protein)
chain: MGKVALAAKITHVPSLYLSELPGPRHGCRQPAIDGHREIGRRCRELGVDTIVVFDTHWLVNAGYHINCAPHFEGLYTSNELPHFIANMEYGFPGNPELGRILAEGCNALGVETLAHDATTLGPEYGTLVPMRYMNQDRHFKVVSVSALCTVHYLNDSARLGWAMRKAVEEHYDGTVAFLASGSLSHRFAQNGQAPDFSDRIWSPFLEVLDHEVVQMWQEGRWAEFCGMLPEYASKGHGEGFMHDTAMLLGALGWSAYDGKAEVVTPYFGSSGTGQINAVFPVTAQDGSAIPAAQAGNPAGASCASRL
notes: N-terminus MGKVA from primer
As for B1, the Km was 58 ± 8 µM, the kcat was 63.5 s⁻¹ and the kcat/Km worked out at 1.1e+06 M⁻¹ s⁻¹.

A word on the Km: it is the substrate concentration at which the rate is half of its maximum. For orientation: kcat means the maximal rate divided by the concentration of active sites. One may read the kcat/Km as the turnover number divided by the Michaelis constant.
